The values that follow come from CN108948193A (SHANGHAI JIANXIN BIOPHARMACEUTICALS LLC, dated 2018).

Where “and” joins values, the source holds several entries; their conditions need not be identical. Equal values may be shown once.

The target of experiment [1] is TIM3-hFc (human TIM-3 Fc fusion, 货号 TM3-H5258, 北京百普赛斯生物科技有限公司) (human) (UniProt Q8TDQ0). The experiment can be described thus: ELISA, hybridoma supernatant on TIM3-hFc captured by anti-hFc.
The target in experiment [2] is T1, TIM3-hFc (human TIM-3 Fc fusion, 货号 TM3-H5258, 北京百普赛斯生物科技有限公司) (human, UniProt Q8TDQ0 22-200).
T1 construct: also called 人TIM-3; 人TIM-3抗原; not shown: human Fc (hFc) of the bought fusion
Nature of the experiment: ELISA on TIM3-hFc captured by anti-hFc.

The target in experiment [3] is T2, 人Tim-3 (antigen used as analyte in Biacore) (human, UniProt Q8TDQ0 22-200).
T2 construct: Soluble antigen flowed at 0-30 nM over antibody captured by Protein A; also called 抗原TIM-3
The experiment can be described thus: SPR, Biacore T200, antibody captured by Protein A on CM5, TIM-3 as analyte, 1:1 Langmuir.

Experiment [4] deals with human TIM-3 on human blood cells (PBMC / NK cells / activated T cells) (human, UniProt Q8TDQ0 22-301). The experiment can be described thus: cell-based or functional assay.

B1: mab5 (mouse hybridoma clone 6F3, murine anti-human TIM-3 monoclonal antibody) (antibody, V domains shown)
VH: EVKLVESEGGLVQPGGSMKLSCTASGFTFSDYYMAWVRQVPEKGLEWVANINYDGSNTYYLDSLKSRFIISRDNVKNILYLQMSSLKSEDTATYYCARGLYYYGGNYFAYWGQGTLVTVSA
VL: DILMTQSPSSMSVSLGDTVTITCHASQGISSNIGWLQQKPGKSFKGLIYQGSNLEDGVPSRFSGSGSGADYSLTISSLEYEDFADYYCVQFAQFPPTFGAGTKLELK
For the molecule B1, the ELISA 数值(OD450) in experiment [1] was determined as 1.73 OD450.

B2: mab5-c (chimeric anti-human TIM-3 antibody, human IgG4-κ) (antibody, V domains shown)
VH: EVKLVESEGGLVQPGGSMKLSCTASGFTFSDYYMAWVRQVPEKGLEWVANINYDGSNTYYLDSLKSRFIISRDNVKNILYLQMSSLKSEDTATYYCARGLYYYGGNYFAYWGQGTLVTVSA
VL: DILMTQSPSSMSVSLGDTVTITCHASQGISSNIGWLQQKPGKSFKGLIYQGSNLEDGVPSRFSGSGSGADYSLTISSLEYEDFADYYCVQFAQFPPTFGAGTKLELKR
notes: Mouse mab5 variable regions on human IgG4 / kappa constant regions; expressed in HEK293E; also called 嵌合抗体mab5-c
Consider B2, for which, in experiment [2], the EC50 was 0.107 nM and 0.06 nM. In experiment [3], this molecule returned an equilibrium dissociation constant (Kd) of 1.76 nM, a koff of 0.00244 s⁻¹ and a kon of 1.39e+06 M⁻¹ s⁻¹. Moreover, the “killing activity relative to the reference antibody ABTIM3 (fold)” value in experiment [4] was 2.8 倍 (fold).

B3: 人源化ab8抗体 (humanized anti-TIM-3 antibody ab8) (antibody, IgG4, V domains shown)
VH: EVQLVESGGGLVKPGGSLRLSCAASGFTFSDYYMAWVRQAPGKGLEWVANINYDGSNTYYLDSLKSRFTISRDNAKNSLYLQMNSLRAEDTAVYYCARGLYYYGGNYFAYWGQGTLVTVSS
VL: DIQMTQSPSSLSASVGDRVTITCHASQGISSNIGWLQQKPGKAFKGLIYQGSNLEDGVPSRFSGSGSGTDYTLTISSLQPEDFATYYCVQFAQFPPTFGQGTKLEIKR
notes: Humanized mab5; human kappa / IgG4
As to B3, in experiment [2], it took 0.131 nM to reach a half-maximal effect (EC50).

B4: 人源化ab6抗体 (humanized anti-TIM-3 antibody ab6) (antibody, human IgG4 S228P, kappa, V domains shown)
VH: EVQLVESGGGLVKPGGSLRLSCAASGFTFSDYYMAWVRQAPGKGLEWVANINYDGSNTYYLDSLKSRFTISRDNAKNSLYLQMNSLRAEDTAVYYCARGLYYYGGNYFAYWGQGTLVTVSS
VL: DIQMTQSPSSLSASVGDRVTITCHASQGISSNIGWLQQKPGKAFKGLIYQGSNLEDGVPSRFSGSGSGADYTLTISSLQPEDFATYYCVQFAQFPPTFGQGTKLEIKR
notes: as for B3
Regarding B4, the EC50 in experiment [2] came out at 0.159 nM. Also, the “killing of tumour cells by PBMC/NK cells relative to the reference antibody (fold)” value in experiment [4] was ≥ 2 倍 (fold).

B5: 人源化ab7抗体 (humanized anti-TIM-3 antibody ab7) (antibody, human IgG4 S228P, kappa, V domains shown)
VH: EVQLVESGGGLVKPGGSLRLSCAASGFTFSDYYMAWVRQAPGKGLEWVANINYDGSNTYYLDSLKSRFTISRDNAKNSLYLQMNSLRAEDTAVYYCARGLYYYGGNYFAYWGQGTLVTVSS
VL: DIQMTQSPSSLSASVGDRVTITCHASQGISSNIGWLQQKPGKAFKGLIYQGSNLEDGVPSRFSGSGSGTDFTLTISSLQPEDFATYYCVQFAQFPPTFGQGTKLEIKR
notes: as for B3
With B5, in experiment [2], a half-maximal effect (EC50) was put at 0.154 nM.

B6: 对照抗体 ABTIM3 (reference anti-TIM-3 antibody, sequence from WO2015117002A1) (antibody, V domains shown)
VH: QVQLQQPGAELVKPGASVKMSCKASGYTFTSYNMHWIKQTPGQGLEWIGDIYPGNGDTSYNQKFKGKATLTADKSSSTVYMQLSSLTSEDSAVYYCARVGGAFPMDYWGQGTSVTVSS
VL: DIVLTQSPASLAVSLGQRATISCRASESVEYYGTSLMQWYQQKPGQPPKLLIYAASNVESGVPARFSGSGSGTDFSLNIHPVEEDDIAIYFCQQSRKDPSTFGGGTKLEIK
As for B6, the EC50 in experiment [2] was 0.245 nM and 0.13 nM.
